Test results as given in publication PMC3688974.

Biological target: HLA-A*02 molecules at the surface of T1 cells (human (endogenous in T1 cells))
Assay: flow cytometry on cells; T1 cells pulsed with 20 µM NY_(157-165) peptide (three pulses, stability control; or freshly for 2 h, day control); HLA-A*02/NY_(157-165) complexes detected with a complex-specific F(ab) and a PE-conjugated second antibody 24, 48 and 96 h after the last loading

Substance: NY-ESO-1_(157-165) peptide (from UniProt P78358 157-165)
- percent of the complexes of freshly peptide-pulsed T1 cells still detected: 64%
